From article PMC2962642, “Familial Glucocorticoid Receptor Haploinsufficiency by Non-Sense Mediated mRNA Decay, Adrenal Hyperplasia and Apparent Mineralocorticoid Excess”

Target: WT hGRalpha (glucocorticoid receptor) (Homo sapiens, UniProt P04150 1-777)
Experiment: EMSA; complex abolished by 50 ng unlabeled probe; 15 min at 25 C; 4.5% acrylamide/bisacrylamide (37:1) gel, 0.25x TBE (50 mM Tris, 50 mM boric acid, 1 mM EDTA); binding buffer and pH not stated (as in ref. 26)
Conditions: protein: ivt; chain copies: 2; label: 32P-dCTP (Klenow fill-in); 5' overhangs AGCT, filled in by Klenow for the labeled probe

Chain of WT hGRalpha (glucocorticoid receptor) (P04150 whole entry): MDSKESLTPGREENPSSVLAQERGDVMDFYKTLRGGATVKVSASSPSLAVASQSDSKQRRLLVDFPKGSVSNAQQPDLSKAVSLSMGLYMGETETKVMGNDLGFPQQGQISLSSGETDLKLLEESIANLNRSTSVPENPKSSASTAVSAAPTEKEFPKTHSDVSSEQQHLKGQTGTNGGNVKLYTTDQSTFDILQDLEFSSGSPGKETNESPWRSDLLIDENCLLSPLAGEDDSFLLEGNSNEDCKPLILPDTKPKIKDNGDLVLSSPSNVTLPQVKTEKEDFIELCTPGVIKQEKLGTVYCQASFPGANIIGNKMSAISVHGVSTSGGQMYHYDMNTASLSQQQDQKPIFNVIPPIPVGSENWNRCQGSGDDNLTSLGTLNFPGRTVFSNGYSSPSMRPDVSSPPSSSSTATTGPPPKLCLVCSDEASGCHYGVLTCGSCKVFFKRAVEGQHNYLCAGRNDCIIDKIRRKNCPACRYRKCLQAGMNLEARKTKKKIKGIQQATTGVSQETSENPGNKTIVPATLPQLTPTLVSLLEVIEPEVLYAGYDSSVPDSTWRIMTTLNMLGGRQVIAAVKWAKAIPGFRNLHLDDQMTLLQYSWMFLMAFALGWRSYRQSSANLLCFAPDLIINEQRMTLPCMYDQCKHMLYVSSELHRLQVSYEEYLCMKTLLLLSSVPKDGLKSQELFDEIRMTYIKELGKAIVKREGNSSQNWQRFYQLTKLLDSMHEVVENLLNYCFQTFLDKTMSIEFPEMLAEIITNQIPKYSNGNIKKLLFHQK

B1: GRE consensus probe (dsDNA)
DNA 1: AGCTGCTCAGCTAGAACACTCTGTTCTCTACT
DNA 2: AGCTAGTAGAGAACAGAGTGTTCTAGCTAGC
B1: binds.
